Laboratory results from publication doi:10.1101/2022.05.23.492800 (2022).

Assays:
Assay in all cases: multimer staining
[1] = molecular target: T1, SARS-CoV-1 Spike protein peptide on HLA-A*24:02 (human)
T1 peptide: QYIKWPWYVW

[2] = molecular target: T2, SARS-CoV-2 Spike protein peptide on HLA-A*23:01 (human)
T2 peptide: QYIKWPWYIW

[3] = molecular target: T3, SARS-CoV-2 Spike protein peptide on HLA-A*24:02 (human)
T3 peptide: QYIKWPWYIW

Measured: binding result

B1: TCRQYI (TCR)
alpha TRAV20*01 TRAJ32*01 CDR3: CAALNYGGATNKLIF
beta TRBV4-3*01 TRBJ2-7*01 CDR3: CASSPSGGAYEQYF
recognises: [1] | [2] | [3]
